Patent publication US20160129100A1 (UVIC INDUSTRY PARTNERSHIPS, published 2016)

Tests used:
[1] = target: T1, Plasminogen-depleted human fibrinogen (human, UniProt P02671 20-629; P02675 31-491; P02679 27-437); assay: 96-well plate binding assay, immobilized host protein, His-tagged peptide, A600
T1 construct: Bought protein, immobilized at 0.5 µg per well
T1 sequence 1: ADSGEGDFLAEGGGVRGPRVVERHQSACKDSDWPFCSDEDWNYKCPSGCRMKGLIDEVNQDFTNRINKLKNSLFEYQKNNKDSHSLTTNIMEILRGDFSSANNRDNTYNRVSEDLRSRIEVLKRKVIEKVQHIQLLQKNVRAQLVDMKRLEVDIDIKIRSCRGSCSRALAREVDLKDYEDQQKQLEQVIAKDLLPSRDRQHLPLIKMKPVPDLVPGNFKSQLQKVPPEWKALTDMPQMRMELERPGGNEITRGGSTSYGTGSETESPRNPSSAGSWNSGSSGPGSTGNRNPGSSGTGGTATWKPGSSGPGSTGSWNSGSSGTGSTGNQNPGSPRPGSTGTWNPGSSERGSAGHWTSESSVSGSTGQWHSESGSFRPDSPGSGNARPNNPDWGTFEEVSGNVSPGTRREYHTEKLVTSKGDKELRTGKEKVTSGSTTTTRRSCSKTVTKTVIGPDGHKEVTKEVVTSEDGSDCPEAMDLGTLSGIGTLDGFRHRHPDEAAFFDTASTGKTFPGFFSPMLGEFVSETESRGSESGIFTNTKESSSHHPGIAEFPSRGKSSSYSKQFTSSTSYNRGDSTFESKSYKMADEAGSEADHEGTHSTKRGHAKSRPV
T1 sequence 2: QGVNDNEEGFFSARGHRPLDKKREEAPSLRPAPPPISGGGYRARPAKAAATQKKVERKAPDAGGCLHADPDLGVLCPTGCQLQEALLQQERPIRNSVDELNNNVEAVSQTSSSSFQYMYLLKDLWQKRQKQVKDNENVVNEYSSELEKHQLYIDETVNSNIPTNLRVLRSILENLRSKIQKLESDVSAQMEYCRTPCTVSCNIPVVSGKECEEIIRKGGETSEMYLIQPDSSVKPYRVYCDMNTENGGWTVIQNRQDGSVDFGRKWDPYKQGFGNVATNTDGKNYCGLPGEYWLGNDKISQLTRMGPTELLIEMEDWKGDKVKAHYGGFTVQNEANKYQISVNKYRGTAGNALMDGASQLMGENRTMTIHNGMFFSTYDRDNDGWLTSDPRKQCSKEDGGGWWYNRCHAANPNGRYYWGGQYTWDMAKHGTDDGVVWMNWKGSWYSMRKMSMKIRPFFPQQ
T1 sequence 3: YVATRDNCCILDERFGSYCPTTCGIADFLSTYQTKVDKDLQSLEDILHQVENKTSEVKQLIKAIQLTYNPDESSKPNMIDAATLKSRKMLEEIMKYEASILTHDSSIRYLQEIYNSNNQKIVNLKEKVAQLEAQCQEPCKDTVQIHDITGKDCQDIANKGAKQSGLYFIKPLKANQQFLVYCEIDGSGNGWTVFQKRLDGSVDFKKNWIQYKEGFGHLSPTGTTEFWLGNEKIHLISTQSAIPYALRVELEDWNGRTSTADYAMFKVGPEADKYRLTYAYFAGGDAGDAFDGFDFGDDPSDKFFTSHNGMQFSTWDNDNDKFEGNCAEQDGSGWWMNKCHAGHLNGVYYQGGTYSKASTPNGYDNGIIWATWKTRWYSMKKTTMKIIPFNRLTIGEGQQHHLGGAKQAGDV

[2] = target: T1, Plasminogen-depleted human fibrinogen; assay: 96-well plate binding assay, immobilized host protein 0.5 µg/well, peptide 2.0 µg/well, A600
[3] = target: T1, Plasminogen-depleted human fibrinogen; assay: 96-well plate binding assay, immobilized host protein 0.5 µg/well, His-tagged peptide, A600
Human collagen type I = target: T2, Human collagen type I (human, UniProt P02452 162-1218; P08123 80-1119); assay: as above
T2 construct: Bought protein, immobilized at 0.5 µg per well; also called collagen I

[4] = target: T3, fibronectin isolated from human plasma (human, UniProt P02751 32-2296); assay: as above
T3 construct: Bought protein, immobilized at 0.5 µg per well
T3 sequence (P02751 other isoform, or with tags, fused parts or gaps limits assumed): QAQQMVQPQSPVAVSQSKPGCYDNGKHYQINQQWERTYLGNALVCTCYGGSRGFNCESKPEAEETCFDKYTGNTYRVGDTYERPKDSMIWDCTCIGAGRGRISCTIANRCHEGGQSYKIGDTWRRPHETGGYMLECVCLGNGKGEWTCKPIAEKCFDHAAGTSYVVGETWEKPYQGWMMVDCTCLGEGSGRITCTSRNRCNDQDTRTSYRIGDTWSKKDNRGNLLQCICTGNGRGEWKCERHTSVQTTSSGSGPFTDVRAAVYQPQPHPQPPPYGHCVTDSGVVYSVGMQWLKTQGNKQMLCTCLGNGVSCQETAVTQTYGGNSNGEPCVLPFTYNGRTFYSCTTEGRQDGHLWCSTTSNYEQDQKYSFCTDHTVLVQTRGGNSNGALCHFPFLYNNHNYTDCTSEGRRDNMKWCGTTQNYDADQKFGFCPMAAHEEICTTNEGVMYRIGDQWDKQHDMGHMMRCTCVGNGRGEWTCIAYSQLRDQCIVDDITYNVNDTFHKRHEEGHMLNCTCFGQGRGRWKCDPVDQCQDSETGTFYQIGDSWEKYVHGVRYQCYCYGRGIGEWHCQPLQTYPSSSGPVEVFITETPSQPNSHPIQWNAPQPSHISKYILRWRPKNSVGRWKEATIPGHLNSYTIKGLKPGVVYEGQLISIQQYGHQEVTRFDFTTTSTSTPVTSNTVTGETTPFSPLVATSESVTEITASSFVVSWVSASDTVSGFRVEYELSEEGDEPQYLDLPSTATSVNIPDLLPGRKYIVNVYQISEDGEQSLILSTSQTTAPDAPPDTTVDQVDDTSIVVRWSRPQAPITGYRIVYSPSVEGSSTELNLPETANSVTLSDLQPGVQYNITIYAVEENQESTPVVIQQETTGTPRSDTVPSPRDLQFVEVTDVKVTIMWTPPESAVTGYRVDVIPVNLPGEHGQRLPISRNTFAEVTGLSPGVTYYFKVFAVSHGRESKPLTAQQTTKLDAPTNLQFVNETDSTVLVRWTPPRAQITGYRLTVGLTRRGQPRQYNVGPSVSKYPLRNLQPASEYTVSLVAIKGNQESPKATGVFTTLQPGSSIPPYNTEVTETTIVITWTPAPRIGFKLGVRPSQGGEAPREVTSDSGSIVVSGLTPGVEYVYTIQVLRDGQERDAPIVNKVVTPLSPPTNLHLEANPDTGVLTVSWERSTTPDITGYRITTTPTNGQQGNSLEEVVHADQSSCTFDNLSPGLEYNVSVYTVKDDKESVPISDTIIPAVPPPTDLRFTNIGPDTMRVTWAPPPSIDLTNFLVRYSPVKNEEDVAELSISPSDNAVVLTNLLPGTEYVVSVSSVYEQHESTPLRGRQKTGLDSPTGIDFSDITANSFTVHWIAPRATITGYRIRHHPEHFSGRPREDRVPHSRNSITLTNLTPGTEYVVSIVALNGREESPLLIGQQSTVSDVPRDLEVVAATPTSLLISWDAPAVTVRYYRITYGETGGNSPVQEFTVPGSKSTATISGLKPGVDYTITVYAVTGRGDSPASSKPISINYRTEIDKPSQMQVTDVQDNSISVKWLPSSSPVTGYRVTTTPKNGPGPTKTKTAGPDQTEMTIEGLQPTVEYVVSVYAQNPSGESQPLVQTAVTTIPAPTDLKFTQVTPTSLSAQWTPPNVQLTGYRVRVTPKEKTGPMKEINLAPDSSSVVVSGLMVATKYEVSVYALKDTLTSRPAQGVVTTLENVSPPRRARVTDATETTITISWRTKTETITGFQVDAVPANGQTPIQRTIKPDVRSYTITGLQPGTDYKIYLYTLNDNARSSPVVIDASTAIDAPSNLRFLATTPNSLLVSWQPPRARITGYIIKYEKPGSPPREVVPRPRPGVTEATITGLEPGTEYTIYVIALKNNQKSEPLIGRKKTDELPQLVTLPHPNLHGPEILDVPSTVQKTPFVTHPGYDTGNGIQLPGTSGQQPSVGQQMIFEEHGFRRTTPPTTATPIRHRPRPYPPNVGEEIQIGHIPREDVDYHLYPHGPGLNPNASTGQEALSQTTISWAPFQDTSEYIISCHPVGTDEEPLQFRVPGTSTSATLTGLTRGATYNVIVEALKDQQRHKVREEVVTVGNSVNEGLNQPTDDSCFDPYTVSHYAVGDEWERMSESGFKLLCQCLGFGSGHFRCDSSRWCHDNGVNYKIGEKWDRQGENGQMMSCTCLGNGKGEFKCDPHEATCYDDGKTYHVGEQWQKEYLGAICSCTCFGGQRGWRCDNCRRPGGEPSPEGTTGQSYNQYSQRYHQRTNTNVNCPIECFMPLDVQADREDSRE

T2 sequence (P02452 162-1218, chain 1 of 2): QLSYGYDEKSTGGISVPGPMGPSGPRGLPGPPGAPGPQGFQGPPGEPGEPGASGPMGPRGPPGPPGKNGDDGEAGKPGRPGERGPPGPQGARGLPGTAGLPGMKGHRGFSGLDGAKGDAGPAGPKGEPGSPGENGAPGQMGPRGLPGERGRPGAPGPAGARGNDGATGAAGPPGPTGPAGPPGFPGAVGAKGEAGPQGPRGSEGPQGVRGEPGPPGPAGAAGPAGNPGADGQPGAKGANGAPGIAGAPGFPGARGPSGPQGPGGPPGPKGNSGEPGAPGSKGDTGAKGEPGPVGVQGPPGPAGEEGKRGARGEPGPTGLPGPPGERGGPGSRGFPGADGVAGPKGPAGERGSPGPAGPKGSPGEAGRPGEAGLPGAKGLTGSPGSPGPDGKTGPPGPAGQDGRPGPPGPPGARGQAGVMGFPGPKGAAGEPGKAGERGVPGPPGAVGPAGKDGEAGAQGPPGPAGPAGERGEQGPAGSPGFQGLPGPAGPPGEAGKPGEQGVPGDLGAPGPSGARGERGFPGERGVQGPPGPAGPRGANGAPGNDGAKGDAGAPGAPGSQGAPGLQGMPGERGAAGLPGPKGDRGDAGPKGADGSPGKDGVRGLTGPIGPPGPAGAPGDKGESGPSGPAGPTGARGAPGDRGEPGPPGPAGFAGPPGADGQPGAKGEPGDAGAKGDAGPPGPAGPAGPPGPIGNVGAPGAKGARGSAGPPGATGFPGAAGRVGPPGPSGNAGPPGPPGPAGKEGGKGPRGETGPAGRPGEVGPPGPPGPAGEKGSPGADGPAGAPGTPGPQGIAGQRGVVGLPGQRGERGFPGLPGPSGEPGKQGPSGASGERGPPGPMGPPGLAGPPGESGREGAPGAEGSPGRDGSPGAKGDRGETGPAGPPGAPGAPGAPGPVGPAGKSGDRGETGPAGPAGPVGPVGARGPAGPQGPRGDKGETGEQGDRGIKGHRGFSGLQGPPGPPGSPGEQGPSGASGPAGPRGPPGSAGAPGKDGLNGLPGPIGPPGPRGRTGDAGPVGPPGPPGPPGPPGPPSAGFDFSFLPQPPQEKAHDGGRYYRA
T2 sequence (P08123 80-1119, chain 2 of 2): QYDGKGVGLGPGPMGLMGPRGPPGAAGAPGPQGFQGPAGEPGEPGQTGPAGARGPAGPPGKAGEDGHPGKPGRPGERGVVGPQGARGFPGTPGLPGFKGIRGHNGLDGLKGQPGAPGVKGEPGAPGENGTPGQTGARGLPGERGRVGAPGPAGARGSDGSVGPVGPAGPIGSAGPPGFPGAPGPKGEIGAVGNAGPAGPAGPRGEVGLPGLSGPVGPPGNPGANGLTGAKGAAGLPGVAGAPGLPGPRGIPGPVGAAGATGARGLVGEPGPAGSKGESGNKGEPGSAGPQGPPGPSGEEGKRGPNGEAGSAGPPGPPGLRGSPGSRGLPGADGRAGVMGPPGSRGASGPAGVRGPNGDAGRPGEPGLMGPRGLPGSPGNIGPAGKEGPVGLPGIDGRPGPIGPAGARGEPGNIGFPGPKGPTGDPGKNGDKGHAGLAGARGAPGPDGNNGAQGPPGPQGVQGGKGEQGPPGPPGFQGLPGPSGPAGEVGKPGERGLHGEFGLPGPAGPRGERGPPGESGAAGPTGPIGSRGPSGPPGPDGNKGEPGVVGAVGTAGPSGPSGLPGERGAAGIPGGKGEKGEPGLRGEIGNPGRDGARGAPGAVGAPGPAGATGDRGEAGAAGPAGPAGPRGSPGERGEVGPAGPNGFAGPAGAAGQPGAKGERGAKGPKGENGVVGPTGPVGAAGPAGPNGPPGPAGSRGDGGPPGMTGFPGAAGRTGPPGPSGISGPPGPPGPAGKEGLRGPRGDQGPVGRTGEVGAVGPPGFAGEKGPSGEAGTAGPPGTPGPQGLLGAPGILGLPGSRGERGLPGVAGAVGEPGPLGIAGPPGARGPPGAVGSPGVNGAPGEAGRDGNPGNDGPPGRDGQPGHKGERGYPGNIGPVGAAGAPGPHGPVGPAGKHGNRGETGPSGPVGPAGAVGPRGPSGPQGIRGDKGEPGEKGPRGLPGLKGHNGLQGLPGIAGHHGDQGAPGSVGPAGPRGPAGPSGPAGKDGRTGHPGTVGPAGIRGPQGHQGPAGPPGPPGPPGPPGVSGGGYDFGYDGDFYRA

Binder | binding result [1] | binding result [2] | binding result [3] | binding result (Human collagen type I) | binding result [4]
HHHHHHRKTVSFLTRNTAISSIRRRLEVTF (One of 13 overlapping synthetic 24-mers spanning Tp0751 T46-P237; also called peptide 10) [Tp0751 peptide p10] | binds | – | – | – | –
HHHHHHTSRVKLTISFERSLVNRTRTARFI (Scrambled synthetic peptide; also called p10 scrambled peptide; scrambled version of peptide 10) [scrambled version of Tp0751 peptide 10 (p10scr)] | binds | – | – | – | –
HHHHHHQGALQHLLAGLWIQTEISPNSGDI (One of 13 overlapping synthetic 24-mers spanning Tp0751 T46-P237; also called peptide 6) [Tp0751 peptide p6] | – | binds | – | – | –
HHHHHHSIRRRLEVTFESHEVIHVRAVEDV (also called peptide 11) [Tp0751 peptide p11] | – | binds | – | – | –
HHHHHHTDPRSHGNAPPAPVGGAAQTHTQP (One of 13 overlapping synthetic 24-mers spanning Tp0751 T46-P237; also called peptide 3) [Tp0751 peptide p3] | – | – | no binding (tested: 2.0 µg per well) | no binding (tested: 2.0 µg per well) | no binding (tested: 2.0 µg per well)
HHHHHHAMRIALWNRATHGEQGALQHLLAG (One of 13 overlapping synthetic 24-mers spanning Tp0751 T46-P237; also called peptide 5) [Tp0751 peptide p5] | – | – | no binding (tested: 2.0 µg per well) | no binding (tested: 2.0 µg per well) | no binding (tested: 2.0 µg per well)
HHHHHHTEISPNSGDIHPLLFFDREHAEIT (One of 13 overlapping synthetic 24-mers spanning Tp0751 T46-P237; also called peptide 7) [Tp0751 peptide p7] | – | – | no binding (tested: 2.0 µg per well) | no binding (tested: 2.0 µg per well) | no binding (tested: 2.0 µg per well)
HHHHHHMRLTPGWHTANQIRPQAQGVATAA (Scrambled synthetic peptide) [scrambled version of Tp0751 peptide 4 (p4scr)] | – | – | no binding (tested: 2.0 µg per well) | no binding (tested: 2.0 µg per well) | no binding (tested: 2.0 µg per well)
HHHHHHFFDREHAEITFSRASVQEIFLVDS (One of 13 overlapping synthetic 24-mers spanning Tp0751 T46-P237; also called negative control peptide) [Tp0751 peptide p8] | – | – | no binding (tested: 2.0 µg per well) | no binding (tested: 2.0 µg per well) | no binding (tested: 2.0 µg per well)
HHHHHHTSNDWGQSLAILHEPQLGILQAGI (Scrambled synthetic peptide) [scrambled version of Tp0751 peptide 6 (p6scr)] | – | – | no binding (tested: 2.0 µg per well) | no binding (tested: 2.0 µg per well) | no binding (tested: 2.0 µg per well)
